Results from patent publication US20170355757A1 (Regeneron, published 2017).

T1: monkey C5-mmh (monkey, UniProt P01031 19-1676 (human entry), limits assumed)
T1 construct: Expressed with a C-terminal myc-myc-hexahistidine tag
T1 chain: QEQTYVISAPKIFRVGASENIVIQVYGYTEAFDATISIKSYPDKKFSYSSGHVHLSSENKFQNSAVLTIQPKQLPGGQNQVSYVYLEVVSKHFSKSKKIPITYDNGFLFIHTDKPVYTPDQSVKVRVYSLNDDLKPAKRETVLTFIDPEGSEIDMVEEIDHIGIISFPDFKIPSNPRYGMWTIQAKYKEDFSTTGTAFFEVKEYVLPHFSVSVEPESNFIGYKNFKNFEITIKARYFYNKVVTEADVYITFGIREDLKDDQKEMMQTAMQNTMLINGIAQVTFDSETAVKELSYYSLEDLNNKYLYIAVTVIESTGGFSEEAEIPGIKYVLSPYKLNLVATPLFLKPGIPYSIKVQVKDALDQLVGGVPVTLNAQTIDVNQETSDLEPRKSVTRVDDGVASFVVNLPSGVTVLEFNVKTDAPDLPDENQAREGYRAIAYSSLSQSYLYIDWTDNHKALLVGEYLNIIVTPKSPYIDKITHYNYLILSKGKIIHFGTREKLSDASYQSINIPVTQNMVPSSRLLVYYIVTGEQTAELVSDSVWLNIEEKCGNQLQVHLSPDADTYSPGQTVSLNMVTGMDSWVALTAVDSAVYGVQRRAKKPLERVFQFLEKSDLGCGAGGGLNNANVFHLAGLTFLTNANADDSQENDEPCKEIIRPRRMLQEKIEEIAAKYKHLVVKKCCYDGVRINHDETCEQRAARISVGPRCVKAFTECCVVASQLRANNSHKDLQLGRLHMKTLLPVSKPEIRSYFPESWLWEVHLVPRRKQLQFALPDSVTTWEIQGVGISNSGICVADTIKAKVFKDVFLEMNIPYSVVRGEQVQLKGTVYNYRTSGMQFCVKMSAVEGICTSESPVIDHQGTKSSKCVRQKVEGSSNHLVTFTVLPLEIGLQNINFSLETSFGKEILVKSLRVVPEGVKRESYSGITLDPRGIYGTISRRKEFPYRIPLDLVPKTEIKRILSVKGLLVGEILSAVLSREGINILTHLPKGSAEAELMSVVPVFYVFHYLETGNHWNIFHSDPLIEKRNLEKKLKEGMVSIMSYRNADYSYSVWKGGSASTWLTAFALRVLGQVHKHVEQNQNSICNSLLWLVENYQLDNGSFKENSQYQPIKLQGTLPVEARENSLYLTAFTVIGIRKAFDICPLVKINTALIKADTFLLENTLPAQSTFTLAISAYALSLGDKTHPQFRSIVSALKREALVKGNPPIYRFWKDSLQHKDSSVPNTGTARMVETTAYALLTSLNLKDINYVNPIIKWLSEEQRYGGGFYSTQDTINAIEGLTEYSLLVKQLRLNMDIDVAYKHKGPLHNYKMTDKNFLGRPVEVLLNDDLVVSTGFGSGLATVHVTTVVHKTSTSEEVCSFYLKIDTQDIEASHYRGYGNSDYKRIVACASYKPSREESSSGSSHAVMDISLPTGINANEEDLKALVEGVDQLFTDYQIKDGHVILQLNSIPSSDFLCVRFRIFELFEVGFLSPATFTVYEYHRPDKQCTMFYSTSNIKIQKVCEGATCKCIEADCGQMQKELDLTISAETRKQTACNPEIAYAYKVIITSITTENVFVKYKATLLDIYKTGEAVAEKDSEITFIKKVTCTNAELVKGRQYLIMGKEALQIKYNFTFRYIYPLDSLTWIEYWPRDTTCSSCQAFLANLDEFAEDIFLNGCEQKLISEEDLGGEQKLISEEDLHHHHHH


Assays:
Human C5 [1] = target: T2, Human C5 (human, UniProt P01031 19-1676); assay: SPR, mAb captured by anti-hFc, 25C
T2 construct: The natural protein has a beta and an alpha chain; also called complement factor 5; complement component 5
Procedure: (§1) Equilibrium dissociation constants (KD values) for C5 binding to purified anti-C5 antibodies were determined using a real-time surface plasmon resonance biosensor assay on a Biacore T200 instrument. The Biacore sensor surface was derivatized by amine coupling with a monoclonal mouse anti-human Fc antibody (GE Healthcare, # BR-1008-39) to capture anti-C5 antibodies expressed with human Fc constant regions. Biacore binding studies were conducted in HBST running buffer (0.01M HEPES pH 7.4, 0.15M NaCl, 3 mM EDTA, 0.05% v/v Surfactant P20).
(§2) Human C5 was obtained from a commercial source (EMD). Other C5 reagents were expressed with a C-terminal myc-myc-hexahistidine tag (subsequently referred to as C5-mmh). […] Association of all the C5 reagents to each of the captured monoclonal antibodies was monitored for 3 minutes and their dissociation in HBST running buffer was monitored for 8 minutes. All the binding kinetics experiments were performed at either 25° C. or 37° C. Kinetic association (kₐ) and dissociation (kd) rate constants were determined by fitting the real-time sensorgrams to a 1:1 binding model using Scrubber 2.0c curve fitting software. Binding dissociation equilibrium constants (KD) and dissociative half-lives (t %) were calculated from the kinetic rate constants as: KD (M)=kd/kₐ and t_{1/2} (min)=In2/(60×kd)

monkey C5-mmh = target: T1, monkey C5-mmh; assay: SPR, mAb captured by anti-hFc, 25C
Procedure: as §1, §2

Human C5 [2] = target: T2, Human C5; assay: SPR, mAb captured by anti-hFc, 37C
Procedure: as §1, §2

Binder | 100 nM Human C5 Bound (RU) (Human C5 [1]) | Kd (Human C5 [1]) [nM] | koff (Human C5 [1]) [s⁻¹] | kon (Human C5 [1]) [M⁻¹ s⁻¹] | t½ (Human C5 [1]) [min] | 100 nM monkey C5-mmh Bound (RU) (monkey C5-mmh) | Kd (monkey C5-mmh) [nM] | koff (monkey C5-mmh) [s⁻¹] | kon (monkey C5-mmh) [M⁻¹ s⁻¹] | t1/2 (monkey C5-mmh) [min] | 100 nM Human C5 Bound (RU) (Human C5 [2]) | Kd (Human C5 [2]) [nM] | koff (Human C5 [2]) [s⁻¹] | kon (Human C5 [2]) [M⁻¹ s⁻¹] | t½ (Human C5 [2]) [min]
H4H12166P2 (antibody, human IgG4, V domains shown, human IgG4 Fc with S108P hinge mutation) VH: QVQLQESGPGLVKPSETLSLTCTVSGDSVSSSYWTWIRQPPGKGLEWIGYIYYSGSSNYNPSLKSRATISVDTSKNQFSLKLSSVTAADTAVYYCAREGNVDTTMIFDYWGQGTLVTVSS VL: AIQMTQSPSSLSASVGDRVTITCRASQGIRNDLGWYQQKPGKAPKLLIYAASSLQSGVPSRFAGRGSGTDFTLTISSLQPEDFATYYCHQDFNYPWTFGQGTKVEIK | 95 | 0.438 | 0.000361 | 826000 | 32 | 71 | 10.5 | 0.00316 | 300000 | 4 | 110 | 1.29 | 0.00123 | 950000 | 9
H4H12166P6 (antibody, human IgG4, V domains shown, human IgG4 Fc with S108P hinge mutation) VH: QVQLQESGPGLVKPSETLSLTCTVSGDSVSSSYWTWIRQPPGKGLEWIGYIYYSGSSNYNPSLKSRATISVDTSKNQFSLKLSSVTAADTAVYYCAREGNVDHTMIFDYWGQGTLVTVSS VL: AIQMTQSPSSLSASVGDRVTITCRASQGIRNDLGWYQQKPGKAPKLLIYAASSLQSGVPSRFAGRGSGTDFTLTISSLQPEDFATYYCLQDFNYPWTFGQGTKVEIK | 131 | 0.375 | 0.000184 | 489000 | 63 | 94 | 11.1 | 0.00266 | 239000 | 4 | 157 | 0.875 | 0.000474 | 542000 | 24
H4H12166P4 (antibody, human IgG4, V domains shown, human IgG4 Fc with S108P hinge mutation) VH: QVQLQESGPGLVKPSETLSLTCTVSGDSVSSSYWTWIRQPPGKGLEWIGYIYYSGSSNYNPSLKSRATISVDTSKNQFSLKLSSVTAADTAVYYCAREGNVDTTMIFDYWGQGTLVTVSS VL: AIQMTQSPSSLSASVGDRVTITCRASQGIRNDLGWYQQKPGKAPKLLIYAASSLQSGVPSRFAGRGSGTDFTLTISSLQPEDFATYYCLQDFNYPWHFGQGTKVEIK | 92 | 0.395 | 0.000176 | 446000 | 66 | 69 | 8.5 | 0.00178 | 210000 | 6 | 108 | 0.93 | 0.000469 | 505000 | 25
H4H12166P5 (antibody, human IgG4, V domains shown, human IgG4 Fc with S108P hinge mutation) VH: QVQLQESGPGLVKPSETLSLTCTVSGDSVSSSYWTWIRQPPGKGLEWIGYIYYSGSSNYNPSLKSRATISVDTSKNQFSLKLSSVTAADTAVYYCAREGNVDTTMIHDYWGQGTLVTVSS VL: AIQMTQSPSSLSASVGDRVTITCRASQGIRNDLGWYQQKPGKAPKLLIYAASSLQSGVPSRFAGRGSGTDFTLTISSLQPEDFATYYCLQDFNYPWTFGQGTKVEIK | 110 | 1.15 | 0.000328 | 285000 | 35 | 56 | 24 | 0.00346 | 144000 | 3 | 129 | 2.77 | 0.00122 | 440000 | 9
H4H12177P2 (antibody, human IgG4, V domains shown) VH: EVQLVESGGGVVQRGESLRLSCSASDFIFKDYAMYWVRQIPGKGLEWISLISGDGDTTWYGDSVKGRFTISRDNNENSLFLQMNDLRTEDTAMYYCARDMGWNFFQLQYWGQGTLVTVSS VL: not shown | 60 | 0.959 | 6.29e-05 | 65600 | 184 | 32 | 21.5 | 0.000992 | 46200 | 12 | 37 | 13.1 | 0.000578 | 44200 | 20

Binders with a lower Kd (Human C5 [1]), results first:

100 nM Human C5 Bound (RU) (Human C5 [1]) | Kd (Human C5 [1]) [nM] | koff (Human C5 [1]) [s⁻¹] | kon (Human C5 [1]) [M⁻¹ s⁻¹] | t½ (Human C5 [1]) [min] | 100 nM monkey C5-mmh Bound (RU) (monkey C5-mmh) | Kd (monkey C5-mmh) [nM] | koff (monkey C5-mmh) [s⁻¹] | kon (monkey C5-mmh) [M⁻¹ s⁻¹] | t1/2 (monkey C5-mmh) [min] | 100 nM Human C5 Bound (RU) (Human C5 [2]) | Kd (Human C5 [2]) [nM] | koff (Human C5 [2]) [s⁻¹] | kon (Human C5 [2]) [M⁻¹ s⁻¹] | t½ (Human C5 [2]) [min] | Binder
50 | 0.163 | 2.7e-05 | 166000 | 427 | 23 | 10.1 | 0.000494 | 48800 | 23 | 30 | 5.81 | 0.00025 | 43000 | 46 | H4H12183P2 (antibody, human IgG4, V domains shown) VH: QVQLQESGPALVKPSQTLSLTCTVSGGSIIRGSTYWSWVRQFPGKGLEWIGYSYYSGTAYYNPSLESRATISVDTSKNQFSLNLKSVTAADTAVYYCTREIGVAGLFDIWGQGTLVTVSS VL: not shown
341 | 0.15 | 3.31e-05 | 220000 | 349 | 247 | 3.11 | 0.000489 | 157000 | 24 | 406 | 0.469 | 0.000156 | 333000 | 74 | H4H11686N (antibody, human IgG4, V domains shown, also called H2M11686N) VH: QVQLVESGGGLVKPGGSLRLSCAASGFTFSDYYMSWIRQAPGKGLEWVSYISSSGNTIKYADSMKGRFTISRDNAKKSLFVEMNSLRAEDTAVYYCARYKSSSDYFDHWGQGTLVTVSS VL: EIVLTQSPATLSLSPGERATLSCRASQSVRSYLAWYQQKPGQAPRLLIYDASNRATAIPARFSGSGSGTDFTLTISSLEPEDLAVYYCQQSGNWPLTFGGGTKVEIK
119 | 0.129 | 6.79e-05 | 525000 | 170 | 92 | 0.199 | 5.21e-05 | 262000 | 222 | 55 | 1.4 | 0.000415 | 297000 | 28 | H4H12170P (antibody, human IgG4, V domains shown) VH: QVQLVESGGGVVQPGRSLRLSCAASGFTFSGYGMHWVRQAPGKGLEWVALIWLDGSNDYYADSVKGRFTISRDNSKNTLYLQMNRLRAEDTAVYYCARDGPVAAIPDYWGQGTLVTVSS VL: DIQMTQSPSTLSASVGDRVTITCRASQSISRWLAWYQLKPGKAPKLLIYKASSLESGVPSRFSGSGSGTDFTLTISSLQPDDFATYYCQQYNTYSYTFGQGTKLEIK
